The assay has as its target tau of P301L tau transgenic mice (4R2N human tau mutated at P301L) (human) (UniProt P10636). As to the kind of experiment: free-tau ELISA on CSF of P301L mice treated with IPN002, against control IgG (Figure 33).
Chain of UniProt P10636 (P10636 other isoform, or with tags, fused parts or gaps P301L P301L P301L P301L limits assumed): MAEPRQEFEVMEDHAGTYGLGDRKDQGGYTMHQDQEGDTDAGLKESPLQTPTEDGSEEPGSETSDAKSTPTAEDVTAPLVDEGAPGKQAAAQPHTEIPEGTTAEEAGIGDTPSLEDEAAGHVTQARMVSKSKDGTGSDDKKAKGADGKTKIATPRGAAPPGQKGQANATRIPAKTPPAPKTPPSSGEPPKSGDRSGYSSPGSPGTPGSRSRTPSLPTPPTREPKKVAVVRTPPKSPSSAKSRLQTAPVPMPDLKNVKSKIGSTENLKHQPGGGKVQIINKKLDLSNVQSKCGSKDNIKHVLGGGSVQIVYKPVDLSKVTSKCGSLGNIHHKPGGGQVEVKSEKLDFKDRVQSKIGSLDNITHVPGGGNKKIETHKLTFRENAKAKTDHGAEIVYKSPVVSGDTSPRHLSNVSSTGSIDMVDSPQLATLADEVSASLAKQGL

B1: IPN002 (antibody, V domains shown)
VH: EVHLVESGGALVKPGGSLKLSCAASGFSFSKYGMSWVRQTPDKRLEWVATISSSGSRTYYPDSVKGQFTISRDNAKNTLYLQMSSLKSEDTAMYYCSISWDGAMDYWGQGTSVTVSS
VL: DVLMTQTPLSLPVSLGDQASISCKSSQSIVHSNGNTYLEWYLQKPGQSPKLLVYKVSNRFSGVPDRFSGSGSGTDFTLKISRVEAEDLGTYYCFQGSLVPWAFGGGTKLEIK
With B1, the reduction in levels of the Free Tau (of IPN002) signal in CSF was 96%.

Values taken from patent publication EP3007726B1.
